In US20110086089A1, “USE OF P27KIP1 FOR THE PREVENTION AND TREATMENT OF HEART FAILURE” (UNIVERSITY HEALTH NETWORK, priority 2008, published 2011):
Marks after values point to notes of the source that are not given here.

How the values were obtained:
p27 KO mice = assay: Chronic Ang II infusion for 14 days with daily TAT.protein injection, p27 KO mice; assay type: in vivo; settings: for FS / LVEDD / LVEF / LVESD / PWD: p27 KO, echocardiography at 14 days
Procedure: (A) Heart-weight corrected for body-weight (left panel) and Masson-stain of myocardial cross sections (right panel). Mean±s.e.m., n=6-8. *P<0.01 vs sham saline. **P<0.01 vs Ang II. Scale bar, 2 mm. (B) Cell size analysis of adult cardiac myocytes isolated from 8-weeks-old mice. One hundred cells from three different mice were analyzed per group. Mean±s.e.m. *P<0.01 vs sham saline. **P<0.01 vs Ang II. (C) Determination of ANF/BNP mRNA levels by qRT-PCR. Mean±s.e.m., n=6-8. *P<0.01 vs sham saline. **P<0.01 vs Ang II. (D) CK2-alpha-prime-dependent kinase activity determined in whole left ventricular tissue samples. One typical result of two independent experiments is shown. (E, F) Ang II action induces apoptosis in p27^−/− mice. (E) Quantification of apoptotic cardiac myocytes (white arrowheads) by in situ TUNEL and GATA4 immunofluorescence histochemistry of left ventricular specimen. Mean±s.e.m., n=4. *P<0.01 vs sham saline. **P<0.05 vs sham saline. #P<0.01. (F) Determination of caspase 3 activity in total left ventricular heart tissue samples. Mean±s.e.m., n=4. *P<0.05 vs sham saline. #P<0.01. (G) Model for CK2-alpha-prime-dependent regulation of cardiac hypertrophy through phosphorylation of p27. Hypertrophic signals stimulate CK2-alpha-prime kinase that phosphorylates p27 at S83 and T187. Phosphorylation of p27 impairs its ability to bind to and inhibit […] activity. Subsequently, p27 is proteasomally degraded allowing hypertrophic growth to proceed.
Next, the inventors examined the effect of transduced proteins on cardiac hypertrophy in p27^−/− mice. Elimination of p27 gene function in these animals completely abrogated the ability of kd.CK2-alpha-prime to block cardiac hypertrophy (FIG. 6A-D). In contrast, hypertrophic responses to Ang II were abolished by p27deltaPi injections. Thus, reconstitution of p27 protein abundance in the myocardium of p27^−/− mice was accompanied by inhibition of Ang II action. Moreover, the inventors observed a marked increase in the number of TUNEL-positive cardiomyocyte nuclei in Ang II-infused p27^−/− mice (FIG. 6E,F) as compared to the WT controls. […] This was in direct contrast to the effect seen by ectopic kd.CK2-alpha-prime consistent with the inventors' previous work showing that CK2 is cardioprotective^73,74.
(§1) Spontaneously beating cardiomyocytes from heart ventricles of neonatal rats were cultured and subjected to treatment with angiotensin II (Ang II). DMAT (2-dimethylamino-4,5,6,7-tetrabromo-1H-benzimidazol), DMSO, lactacystin and LLM were obtained from Calbiochem. Ang II was purchased from Sigma. Animal usage was in accordance with approved institutional animal care guidelines. Age-matched male WI C57BL/6 and p27^−/− mice were used in this study. For results shown in FIGS. 1 to 9: Ang II was chronically infused subcutaneously by osmotic pumps (model 2000, Alzet) at a dose of 1.4 μg/kg per minute for 14 days. TAT.proteins (10 mg/kg) were injected intraperitoneally once daily for 14 days. For results shown in FIGS. 10 to 12: Ang II was chronically infused subcutaneously by osmotic pumps (model 2000, Alzet) at a dose of 0.7 μg/kg per minute for 16 days. TAT.proteins (20 mg/kg) were injected intraperitoneally once daily for 8 days starting at day 8. Thoracic aortic banding (TAB) and pressure gradient measurements were performed as described^39.

WT mice = assay: Chronic Ang II infusion for 14 days with daily TAT.protein injection, WT mice; assay type: in vivo; settings: for FS / LVEDD / LVEF / LVESD / PWD: WT, echocardiography at 14 days
From the text: FIG. 5 is a series of graphs, blots and cell stainings showing CK2-alpha-prime is important for Ang II action in vivo. […] Transduction of recombinant active CK2-alpha-prime evokes cardiac hypertrophy in the absence of Ang II. (A) Heart-weight corrected for body-weight (left panel) and Masson-stain of myocardial cross sections (right panel). Mean±s.e.m., n=6-8. #P<0.01 vs sham saline. *P<0.01 vs sham saline. Scale bar, 2 mm. (B) Cell size analysis of adult cardiac myocytes isolated from 8-weeks-old mice. One hundred cells from three different mice were analyzed per group. Mean±s.e.m. #P<0.01 vs sham saline. *P<0.01 vs sham saline. **P<0.01 vs Ang II. (c) Determination of ANF/BNP mRNA levels by qRT-PCR. Mean±s.e.m., n=6-8. *P<0.05 vs sham saline. **P<0.05 vs Ang II. #P<0.05 vs sham saline. (D) Visualization of ectopic TAT-conjugated p27deltaPi by indirect immunofluorescence microscopy employing anti-His tag antibodies. Scale bar, 200 μm. (E) Left ventricular extracts (2-3 mg) were subjected to anti-CK2-alpha-prime immunocomplex kinase assays employing histone H1 substrate. Aliquots of kinase reactions were subjected to immunoblotting using antibodies as indicated on the left (top and middle panel). Levels of endogenously expressed or transduced proteins in total left ventricular heart tissue samples (60 μg) were analyzed by immunoblotting (bottom panel). Experiments to (E) were done twice with similar results.
To define whether CK2-alpha-prime -directed p27 turnover plays a role in vivo, the inventors chronically infused Ang II^72 and intraperitoneally injected recombinant TAT-conjugated CK2-alpha-prime and p27 variants in WT and p27^−/− mice (FIG. 9). […] These mice had normal LVEDD and LVESD when compared to Ang II-infused littermates (Table 3). […] CK2-alpha-prime activity and p27 destabilization were similar to their non-transduced Ang II-treated siblings (FIG. 5E).
as §1

[1] = Ang infusion 1.4 μg/kg per minute 14 days, TAT.protein 10 mg/kg i.p. once daily
[2] = saline infusion, TAT.protein 10 mg/kg i.p. once daily 14 days

B1: kd.CK2-α′: catalytically-inactive kinase-dead CK2-alpha-prime, point mutation K69M; TAT-conjugated protein in mice, lentivirally expressed in cardiomyocytes (protein)
chain: MPGPAAGSRARVYAEVNSLRSREYWDYEAHVPSWGNQDDYQLVRKLGRGKYSEVFEAINITNNERVVVMILKPVKKKKIKREVKILENLRGGTNIIKLIDTVKDPVSKTPALVFEYINNTDFKQLYQILTDFDIRFYMYELLKALDYCHSKGIMHRDVKPHNVMIDHQQKKLRLIDWGLAEFYHPAQEYNVRVASRYFKGPELLVDYQMYDYSLDMWSLGCMLASMIFRREPFFHGQDNYDQLVRIAKVLGTEELYGYLKKYHIDLDPHFNDILGQHSRKRWENFIHSENRHLVSPEALDLLDKLLRYDHQQRLTAKEAMEHPYFYPVVKEQSQPCADNAVLSSGLTAAR
modifications: left off: small tags and cut ends
notes: TAT-conjugated protein in mice, lentivirally expressed in cardiomyocytes
With B1 the “cardiac hypertrophy / hypertrophic responses to Ang II” value (p27 KO mice; Ang II-infused p27−/− mice, TAT.proteins 10 mg/kg i.p. once daily) was “fails to inhibit cardiac hypertrophy”, the FS (p27 KO mice; [1]) was 52 ± 1.9* % and the LVEDD (p27 KO mice; [1]) was 4.5 ± 0.1* mm. For the same molecule, the LVEF (p27 KO mice; [1]) was 83 ± 2.8* %, the LVESD (p27 KO mice; [1]) was 2.1 ± 0.2* mm and the PWD (p27 KO mice; [1]) was 1.2 ± 0.1* mm. For the same molecule, the FS (p27 KO mice; [2]) was 39 ± 2.6%, the LVEDD (p27 KO mice; [2]) was 3.8 ± 0.2 mm and the LVEF (p27 KO mice; [2]) was 69 ± 2.3%. The LVESD (p27 KO mice; [2]) was 1.3 ± 0.1 mm, the PWD (p27 KO mice; [2]) was 0.7 ± 0.2 mm and the “cardiac hypertrophy to Ang II (heart/body weight ratio, myocyte area, ANF/BNP mRNA)” value (WT mice; Ang II-treated WT mice, TAT.proteins 10 mg/kg i.p. once daily 14 days) was “abrogate cardiac hypertrophy”. For the same molecule, the “Ang II-induced CK2-alpha-prime activity (left ventricular immunocomplex kinase assay)” value (WT mice; Ang II-treated WT mice, left ventricular extracts) was “abolished”, the FS (WT mice; [1]) was 38 ± 2.6** % and the LVEDD (WT mice; [1]) was 3.8 ± 0.2** mm. For the same molecule, the LVEF (WT mice; [1]) was 71 ± 2.3** %, the LVESD (WT mice; [1]) was 1.3 ± 0.1** mm and the PWD (WT mice; [1]) was 0.7 ± 0.2** mm. It also gave an LVEDD (WT mice; [2]) of 3.7 ± 0.2 mm, an LVEF (WT mice; [2]) of 71 ± 2.4% and an LVESD (WT mice; [2]) of 1.4 ± 0.2 mm. The PWD (WT mice; [2]) was 0.7 ± 0.1 mm and the FS (WT mice; saline infusion, TAT.protein 10 mg/kg i.p. once daily 14 days, 8-weeks of age) was 40 ± 1.5%.
